Usually stoichiometry N stands for a count of units in the complex or per binding partner.

This data set concerns the molecule itself. Kind of data set: SEC. For orientation: Size exclusion chromatography separates by hydrodynamic size, large species first.

B1: KicGAS L17R (natural protein, UniProt Q2HR80 1-131, looked up)
chain: MAAPRGRPKKDLTMEDRTAKISQLTVENRELRKALGSTADPRDRPLTATEKEAQLTATVGALSAAAAKKIEARVRTIFSKVVTQKQVDDALKGLSLRIDVCMSDGGTAKPPPGANNRRRRGASTTRAGVDD
As for B1, the “stoichiometry N” value came to 2.

B2: KicGAS L35A (natural protein, UniProt Q2HR80 1-131, looked up)
chain: MAAPRGRPKKDLTMEDLTAKISQLTVENRELRKAAGSTADPRDRPLTATEKEAQLTATVGALSAAAAKKIEARVRTIFSKVVTQKQVDDALKGLSLRIDVCMSDGGTAKPPPGANNRRRRGASTTRAGVDD
For B2, the binding result is given as “binds”.

B3: KicGAS L35R (natural protein, UniProt Q2HR80 1-131, looked up)
chain: MAAPRGRPKKDLTMEDLTAKISQLTVENRELRKARGSTADPRDRPLTATEKEAQLTATVGALSAAAAKKIEARVRTIFSKVVTQKQVDDALKGLSLRIDVCMSDGGTAKPPPGANNRRRRGASTTRAGVDD
For the protein B3, the binding result is recorded as “binds”.

B4: KicGAS P41S/P45I (natural protein, UniProt Q2HR80 1-131, looked up)
chain: MAAPRGRPKKDLTMEDLTAKISQLTVENRELRKALGSTADSRDRILTATEKEAQLTATVGALSAAAAKKIEARVRTIFSKVVTQKQVDDALKGLSLRIDVCMSDGGTAKPPPGANNRRRRGASTTRAGVDD
For the protein B4, the binding result was “binds”.

B5: KicGAS^9-104 (domain or fragment, UniProt Q2HR80 9-104, looked up)
chain: KKDLTMEDLTAKISQLTVENRELRKALGSTADPRDRPLTATEKEAQLTATVGALSAAAAKKIEARVRTIFSKVVTQKQVDDALKGLSLRIDVCMSD
Take B5: the binding result is “binds”.

The values above are taken from publication PMC9388135 (Proceedings of the National Academy of Sciences of the …, 2022).
